Our source for the amount immobilised (from the SPR angle change) and RCT (charge transfer resistance) after interaction values is PMC11048174.

In assay [1] the target is Avidin (obtained from egg white) (UniProt P02701). The assay can be described thus: SPR; MWCNT-Av deposited on a gold disk; 0.50 mg mL^-1 bLOx or LOx injected manually, batch conditions, 25 °C; amount from the change of the resonance angle after washing with phosphate buffer.
Assay [2] has the same target. The experiment in a line: electrochemical impedance spectroscopy; MWCNT-Av on glassy carbon electrode, incubated with bLOx or LOx; charge transfer resistance of hydroquinone/benzoquinone at 0.050 V, 0.050 M phosphate buffer pH 7.40.

Chain of UniProt P02701 (P02701 25-152): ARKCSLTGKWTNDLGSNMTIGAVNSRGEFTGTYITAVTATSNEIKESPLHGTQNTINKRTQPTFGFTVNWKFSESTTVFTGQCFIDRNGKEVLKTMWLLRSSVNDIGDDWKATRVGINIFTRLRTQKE

For the substance “recombinant biotinylated lactate oxidase (enzyme)”, the amount immobilised (from the SPR angle change) in assay [1] stood at 2600 pg mm^−2. Further, the RCT (charge transfer resistance) after interaction in assay [2] was 200 Ω.
